The text below walks through data of the Human Domainome abundance scans (Beltran et al. 2025).

± gives the uncertainty stated by the source.

B1: Zinc finger homeobox protein 4, residues 2562 to 2617; numbered along this chain, Q86UP3 (parent)
chain: RLRTTITPEQLEILYEKYLLDSNPTRKMLDHIAREVGLKKRVVQVWFQNTRARERK

Variants of B1 are the subject of the data set. The data set can be described thus: abundance fitness (aPCA) (normalised: wild type 0, dead -1); higher = more abundant; growth selection in yeast, the domain comes from the species named. Particulars: Homo sapiens.
Consider RLRTTITPEQMEILYEKYLLDSNPTRKMLDHIAREVGLKKRVVQVWFQNTRARERK [L11M], for which the abundance fitness was -0.062 ± 0.089.

In the case of RLRTTITPEQDEILYEKYLLDSNPTRKMLDHIAREVGLKKRVVQVWFQNTRARERK [L11D], the abundance fitness was 0.108 ± 0.064.

As for RLRTTITPEQAEILYEKYLLDSNPTRKMLDHIAREVGLKKRVVQVWFQNTRARERK [L11A], the abundance fitness is -0.059 ± 0.053.

Consider RLRTTITPEQGEILYEKYLLDSNPTRKMLDHIAREVGLKKRVVQVWFQNTRARERK [L11G], for which the abundance fitness was -0.017 ± 0.066.

Turning to RLRTTITPEQVEILYEKYLLDSNPTRKMLDHIAREVGLKKRVVQVWFQNTRARERK [L11V], the abundance fitness came to 0.123 ± 0.061.

Regarding RLRTTITPEQQEILYEKYLLDSNPTRKMLDHIAREVGLKKRVVQVWFQNTRARERK [L11Q], the abundance fitness worked out at 0.017 ± 0.094.

For RLRTTITPEQTEILYEKYLLDSNPTRKMLDHIAREVGLKKRVVQVWFQNTRARERK [L11T], the abundance fitness stood at 0.215 ± 0.12.

As to RLRTTITPEQEEILYEKYLLDSNPTRKMLDHIAREVGLKKRVVQVWFQNTRARERK [L11E], the abundance fitness came to 0.092 ± 0.12.

RLRTTITPEQSEILYEKYLLDSNPTRKMLDHIAREVGLKKRVVQVWFQNTRARERK [L11S]: the abundance fitness is -0.082 ± 0.074.

Take RLRTTITPEQHEILYEKYLLDSNPTRKMLDHIAREVGLKKRVVQVWFQNTRARERK [L11H]: the abundance fitness is -0.01 ± 0.11.

RLRTTITPEQIEILYEKYLLDSNPTRKMLDHIAREVGLKKRVVQVWFQNTRARERK [L11I]: the abundance fitness was -0.037 ± 0.16.

As for RLRTTITPEQYEILYEKYLLDSNPTRKMLDHIAREVGLKKRVVQVWFQNTRARERK [L11Y], the abundance fitness is -0.159 ± 0.15.

In the case of RLRTTITPEQPEILYEKYLLDSNPTRKMLDHIAREVGLKKRVVQVWFQNTRARERK [L11P], the abundance fitness is -1.05 ± 0.21.

Take RLRTTITPEQREILYEKYLLDSNPTRKMLDHIAREVGLKKRVVQVWFQNTRARERK [L11R]: the abundance fitness is -0.043 ± 0.052.

Regarding RLRTTITPEQKEILYEKYLLDSNPTRKMLDHIAREVGLKKRVVQVWFQNTRARERK [L11K], the abundance fitness is -0.05 ± 0.09.

For RLRTTITPEQNEILYEKYLLDSNPTRKMLDHIAREVGLKKRVVQVWFQNTRARERK [L11N], the abundance fitness is -0.189 ± 0.11.

With RLRTTITPEQWEILYEKYLLDSNPTRKMLDHIAREVGLKKRVVQVWFQNTRARERK [L11W], the abundance fitness is -0.203 ± 0.07.

Turning to RLRTTITPEQCEILYEKYLLDSNPTRKMLDHIAREVGLKKRVVQVWFQNTRARERK [L11C], the abundance fitness is -0.85 ± 0.14.

Consider RLRTTITPEQLMILYEKYLLDSNPTRKMLDHIAREVGLKKRVVQVWFQNTRARERK [E12M], for which the abundance fitness is -0.075 ± 0.087.

For RLRTTITPEQLLILYEKYLLDSNPTRKMLDHIAREVGLKKRVVQVWFQNTRARERK [E12L], the abundance fitness is -0.002 ± 0.07.

Turning to RLRTTITPEQLDILYEKYLLDSNPTRKMLDHIAREVGLKKRVVQVWFQNTRARERK [E12D], the abundance fitness was -0.05 ± 0.097.

Consider RLRTTITPEQLQILYEKYLLDSNPTRKMLDHIAREVGLKKRVVQVWFQNTRARERK [E12Q], for which the abundance fitness was 0.033 ± 0.085.

Consider RLRTTITPEQLFILYEKYLLDSNPTRKMLDHIAREVGLKKRVVQVWFQNTRARERK [E12F], for which the abundance fitness worked out at 0.083 ± 0.12.

RLRTTITPEQLKILYEKYLLDSNPTRKMLDHIAREVGLKKRVVQVWFQNTRARERK [E12K]: the abundance fitness worked out at 0.238 ± 0.12.

Turning to RLRTTITPEQLGILYEKYLLDSNPTRKMLDHIAREVGLKKRVVQVWFQNTRARERK [E12G], the abundance fitness was -0.039 ± 0.058.

Regarding RLRTTITPEQLRILYEKYLLDSNPTRKMLDHIAREVGLKKRVVQVWFQNTRARERK [E12R], the abundance fitness was found to be 0.007 ± 0.047.

Turning to RLRTTITPEQLHILYEKYLLDSNPTRKMLDHIAREVGLKKRVVQVWFQNTRARERK [E12H], the abundance fitness was -0.307 ± 0.31.

With RLRTTITPEQLPILYEKYLLDSNPTRKMLDHIAREVGLKKRVVQVWFQNTRARERK [E12P], the abundance fitness was -0.659 ± 0.077.

Turning to RLRTTITPEQLSILYEKYLLDSNPTRKMLDHIAREVGLKKRVVQVWFQNTRARERK [E12S], the abundance fitness amounted to 0.048 ± 0.053.

Consider RLRTTITPEQLAILYEKYLLDSNPTRKMLDHIAREVGLKKRVVQVWFQNTRARERK [E12A], for which the abundance fitness amounted to 0.01 ± 0.059.

Consider RLRTTITPEQLIILYEKYLLDSNPTRKMLDHIAREVGLKKRVVQVWFQNTRARERK [E12I], for which the abundance fitness turned out to be 0.294 ± 0.13.

Turning to RLRTTITPEQLCILYEKYLLDSNPTRKMLDHIAREVGLKKRVVQVWFQNTRARERK [E12C], the abundance fitness is -0.224 ± 0.11.

As for RLRTTITPEQLNILYEKYLLDSNPTRKMLDHIAREVGLKKRVVQVWFQNTRARERK [E12N], the abundance fitness was -0.075 ± 0.25.

RLRTTILPEQLEILYEKYLLDSNPTRKMLDHIAREVGLKKRVVQVWFQNTRARERK [T7L]: the abundance fitness was -0.206 ± 0.12.

Consider RLRTTIPPEQLEILYEKYLLDSNPTRKMLDHIAREVGLKKRVVQVWFQNTRARERK [T7P], for which the abundance fitness was -0.165 ± 0.2.

With RLRTTINPEQLEILYEKYLLDSNPTRKMLDHIAREVGLKKRVVQVWFQNTRARERK [T7N], the abundance fitness was -0.238 ± 0.42.

RLRTTIQPEQLEILYEKYLLDSNPTRKMLDHIAREVGLKKRVVQVWFQNTRARERK [T7Q]: the abundance fitness was -0.295 ± 0.082.

In the case of RLRTTIRPEQLEILYEKYLLDSNPTRKMLDHIAREVGLKKRVVQVWFQNTRARERK [T7R], the abundance fitness is -0.449 ± 0.07.

As to RLRTTIVPEQLEILYEKYLLDSNPTRKMLDHIAREVGLKKRVVQVWFQNTRARERK [T7V], the abundance fitness is -0.196 ± 0.11.

For the variant RLRTTIWPEQLEILYEKYLLDSNPTRKMLDHIAREVGLKKRVVQVWFQNTRARERK [T7W], the abundance fitness was -0.708 ± 0.24.

Consider RLRTTIMPEQLEILYEKYLLDSNPTRKMLDHIAREVGLKKRVVQVWFQNTRARERK [T7M], for which the abundance fitness is -0.321 ± 0.14.

As to RLRTTIYPEQLEILYEKYLLDSNPTRKMLDHIAREVGLKKRVVQVWFQNTRARERK [T7Y], the abundance fitness is -0.436 ± 0.09.

Consider RLRTTISPEQLEILYEKYLLDSNPTRKMLDHIAREVGLKKRVVQVWFQNTRARERK [T7S], for which the abundance fitness was -0.111 ± 0.13.

Turning to RLRTTIKPEQLEILYEKYLLDSNPTRKMLDHIAREVGLKKRVVQVWFQNTRARERK [T7K], the abundance fitness was -0.55 ± 0.26.

Take RLRTTITPVQLEILYEKYLLDSNPTRKMLDHIAREVGLKKRVVQVWFQNTRARERK [E9V]: the abundance fitness was -0.157 ± 0.056.

As to RLRTTITPHQLEILYEKYLLDSNPTRKMLDHIAREVGLKKRVVQVWFQNTRARERK [E9H], the abundance fitness was -0.257 ± 0.098.

Turning to RLRTTITPTQLEILYEKYLLDSNPTRKMLDHIAREVGLKKRVVQVWFQNTRARERK [E9T], the abundance fitness is -0.105 ± 0.068.
